According to article PMC5641120, “Small-molecule inhibitors of PD-1/PD-L1 immune checkpoint alleviate the PD-L1-induced exhaustion of T-cells” (Oncotarget, 2017):

System: PD-1/sPD-L1
Assay: PD-1/sPD-L1 effector assay (anti-CD3 activated ECs, luciferase)
Assay type: cell-based, human
Conditions: anti-CD3 with sPD-L1 (wt or mutein), 24 h, luciferase reporter
Procedure: To evaluate the potential of BMS compounds in abrogating the inhibitory effect of sPD-L1 on the activation of T cells, sPD-L1 was pre-incubated with tested compounds and presented to ECs together with the anti-CD3-activating antibody.
For the evaluation of the BMS impact on T cell inhibition by soluble PD-L1, the ECs were stimulated with the anti-CD3 antibody in the presence of the recombinant human sPD-L1. For this, the 96-well white flat bottom plates were coated overnight at 4°C with 5 μg/ml of the anti-CD3 antibody or the isotype control solution in PBS. […] Then, 15 μl of the solution was added to each well of the antibody-coated plate. ECs were centrifuged and diluted to 50 000 per ml, and 60 μl of the cell solution was added to each well. The final concentration of sPD-L1 was 10 μg/ml (0.6 μM). The final concentrations of the BMS compounds were: 0.12, 0.3, 1.2 and 3 μM, giving the following BMS:sPD-L1 molar ratios: 1:5, 1:2, 2:1 and 5:1. The cells were cultured for 24 h and the luciferase activity assay was performed using the Bio-Glo Luciferase Assay System (Promega) according to the manufacturer's instructions.

B1: sPD-L1: recombinant human soluble PD-L1 (residues 18–134, C-terminal His-tag) (protein)
chain: AFTVTVPKDLYVVEYGSNMTIECKFPVEKQLDLAALIVYWEMEDKNIIQFVHGEEDLKVQHSSYRQRARLLKDQLSLGNAALQITDVKLQDAGVYRCMISYGGADYKRITVKVNAPY
modifications: NTA-Atto 647 N fluorescent dye on the His-tag (flow cytometry only); uniform 15N labelling (NMR titration with compounds only); left off: His-tag, C-terminal, kept
In the case of B1, the “effect of soluble PD-L1 protein on anti-CD3 mediated activation of ECs” value is reported as “decreased reporter expression to about half”.
